Reference: the Immune Epitope Database (IEDB)
Values belong to the sequence of their own block, whether it stands above or below them.

Legend:
HLA-B*15:09 = test: IEDB peptide-MHC binding, purified MHC/direct/fluorescence; filed as Kd, often an IC50 or EC50 that approximates it; ≥ and ≤ were set here for values at or beyond the usual limits of such assays
HLA-B*39:01 = test: IEDB peptide-MHC binding, purified MHC/competitive/fluorescence; filed as Kd, often an IC50 or EC50 that approximates it; ≥ and ≤ were set here for values at or beyond the usual limits of such assays
HLA-A*24:03 = test: as above
HLA-A*26:01 [1] = test: as above
HLA-B*51:01 [2] = test: as above
HLA-A*02:11 = test: as above
HLA-A*02:16 = test: as above
HLA-A*02:12 = test: as above
HLA-A*03:01 = test: as above
HLA-A*02:19 = test: as above
HLA-B*57:01 = test: as above
HLA-A*69:01 = test: as above; conditions: source organism: Giardia lamblia ATCC 50803
HLA-A*02:01 = test: as above
HLA-A*68:02 = test: as above; conditions: source organism: Giardia lamblia ATCC 50803
HLA-A*02:03 = test: as above
HLA-B*27:03 [3] = test: as above
HLA-B*18:01 = test: as above
HLA-C*14:02 = test: IEDB peptide-MHC binding, purified MHC/direct/fluorescence; filed as Kd, often an IC50 or EC50 that approximates it; ≥ and ≤ were set here for values at or beyond the usual limits of such assays; conditions: source organism: Mycobacterium tuberculosis str. Haarlem
HLA-B*58:01 = test: IEDB peptide-MHC binding, purified MHC/competitive/fluorescence; filed as Kd, often an IC50 or EC50 that approximates it; ≥ and ≤ were set here for values at or beyond the usual limits of such assays
HLA-A*01:01 = test: as above
HLA-B*46:01 = test: as above
HLA-B*15:01 [4] = test: as above
HLA-A*29:02 = test: as above
HLA-B*15:17 = test: as above
HLA-A*26:01 [5] = test: IEDB peptide-MHC binding, purified MHC/direct/fluorescence; filed as Kd, often an IC50 or EC50 that approximates it; ≥ and ≤ were set here for values at or beyond the usual limits of such assays; conditions: source organism: Vibrio parahaemolyticus AQ3810
HLA-B*51:01 [6] = test: as above; conditions: source organism: Vibrio parahaemolyticus AQ3810
HLA-B*15:01 [7] = test: as above; conditions: source organism: Vibrio parahaemolyticus AQ3810
HLA-B*27:03 [8] = test: as above; conditions: source organism: Vibrio parahaemolyticus AQ3810
HLA-C*06:02 = test: as above; conditions: source organism: Homo sapiens
[9] = source organism: Giardia lamblia ATCC 50803
[10] = source organism: Yersinia pestis Nepal516
[11] = source organism: Francisella tularensis subsp. tularensis FSC198
[12] = source organism: Escherichia coli O139:H28 str. E24377A
[13] = source organism: Bacillus cereus ATCC 4342

Sequence: TMDVYVMIL
Kd (HLA-B*15:09; source organism: Vibrio cholerae V52): 0.384 µM
Kd (HLA-B*39:01; source organism: Vibrio cholerae MAK 757): 0.0123 µM

Sequence: ISKANWMTY
Kd (HLA-A*24:03; [9]): ≥ 20 µM
Kd (HLA-A*26:01 [1]; [9]): ≥ 20 µM
Kd (HLA-B*39:01; [9]): ≥ 20 µM
Kd (HLA-B*51:01 [2]; [9]): ≥ 20 µM
Kd (HLA-A*02:11; [9]): ≥ 20 µM
Kd (HLA-A*02:16; [9]): ≥ 20 µM
Kd (HLA-A*02:12; [9]): ≥ 20 µM
Kd (HLA-A*03:01; [9]): ≥ 20 µM
Kd (HLA-A*02:19; [9]): ≥ 20 µM
Kd (HLA-B*57:01; [9]): 0.0837 µM
Kd (HLA-A*69:01): ≥ 20 µM
Kd (HLA-A*02:01; [9]): ≥ 20 µM
Kd (HLA-A*68:02): ≥ 20 µM
Kd (HLA-A*02:03; [9]): ≥ 20 µM
Kd (HLA-B*27:03 [3]; [9]): ≥ 20 µM
Kd (HLA-B*18:01; [9]): ≥ 20 µM

Sequence: AAIAVGVAL
Kd (HLA-C*14:02): ≥ 20 µM

Sequence: YSSPHLLRY
Kd (HLA-B*58:01; [10]): 0.0045 µM
Kd (HLA-A*03:01; [10]): 0.258 µM
Kd (HLA-A*01:01; [10]): 0.0103 µM

Sequence: IANTTDHFF
Kd (HLA-A*24:03; [9]): ≥ 20 µM
Kd (HLA-A*26:01 [1]; [9]): ≥ 20 µM
Kd (HLA-B*39:01; [9]): ≥ 20 µM
Kd (HLA-B*51:01 [2]; [9]): ≥ 20 µM
Kd (HLA-A*02:16; [9]): ≥ 20 µM
Kd (HLA-A*02:12; [9]): ≥ 20 µM
Kd (HLA-A*03:01; [9]): ≥ 20 µM
Kd (HLA-A*02:19; [9]): ≥ 20 µM
Kd (HLA-B*57:01; [9]): 0.159 µM
Kd (HLA-A*69:01): ≥ 20 µM
Kd (HLA-A*02:01; [9]): ≥ 20 µM
Kd (HLA-A*68:02): ≥ 20 µM
Kd (HLA-A*02:03; [9]): ≥ 20 µM
Kd (HLA-B*27:03 [3]; [9]): ≥ 20 µM
Kd (HLA-B*18:01; [9]): ≥ 20 µM

Sequence: YDAHHRFIL
Kd (HLA-B*15:09; source organism: Listeria monocytogenes serotype 4b str. H7858): ≥ 20 µM

Sequence: AILAGEHKC
Kd (HLA-A*24:03; [9]): ≥ 20 µM
Kd (HLA-A*26:01 [1]; [9]): ≥ 20 µM
Kd (HLA-B*39:01; [9]): ≥ 20 µM
Kd (HLA-B*46:01; [9]): ≥ 20 µM
Kd (HLA-B*51:01 [2]; [9]): ≥ 20 µM
Kd (HLA-A*02:11; [9]): ≥ 20 µM
Kd (HLA-A*02:12; [9]): 3.73 µM
Kd (HLA-A*03:01; [9]): ≥ 20 µM
Kd (HLA-A*02:19; [9]): ≥ 20 µM
Kd (HLA-B*57:01; [9]): ≥ 20 µM
Kd (HLA-B*15:01 [4]; [9]): ≥ 20 µM
Kd (HLA-A*29:02; [9]): ≥ 20 µM
Kd (HLA-A*02:01; [9]): ≥ 20 µM
Kd (HLA-B*15:17; [9]): ≥ 20 µM
Kd (HLA-A*02:03; [9]): ≥ 20 µM
Kd (HLA-B*27:03 [3]; [9]): ≥ 20 µM
Kd (HLA-B*18:01; [9]): ≥ 20 µM

Sequence: MAYGFFNNI
Kd (HLA-A*26:01 [5]): ≥ 20 µM
Kd (HLA-B*51:01 [6]): 0.03 µM
Kd (HLA-B*15:01 [7]): ≥ 20 µM
Kd (HLA-B*27:03 [8]): ≥ 20 µM

Kd (HLA-C*06:02): 0.004 µM
Kd (HLA-A*01:01; source organism: Homo sapiens): ≥ 20 µM
Kd (HLA-A*29:02; source organism: Homo sapiens): 0.109 µM
Sequence: NYIDKVRFL

Sequence: TVIEGLDKL
Kd (HLA-A*02:16; [11]): 0.195 µM
Kd (HLA-A*02:01; [11]): 0.0884 µM

Kd (HLA-B*58:01; [12]): 0.672 µM
Kd (HLA-A*01:01; [12]): ≥ 20 µM
Kd (HLA-A*02:01; [12]): 0.0725 µM
Sequence: ITAALAWSL

Sequence: GLFWGGIWY
Kd (HLA-A*24:03; [13]): ≥ 20 µM
Kd (HLA-A*26:01 [1]; [13]): ≥ 20 µM
Kd (HLA-B*39:01; [13]): ≥ 20 µM
Kd (HLA-B*46:01; [13]): ≥ 20 µM
Kd (HLA-B*51:01 [2]; [13]): ≥ 20 µM
Kd (HLA-A*02:11; [13]): 0.834 µM
Kd (HLA-A*02:16; [13]): 5.63 µM
Kd (HLA-A*02:12; [13]): ≥ 20 µM
Kd (HLA-A*03:01; [13]): ≥ 20 µM
Kd (HLA-A*02:19; [13]): ≥ 20 µM
Kd (HLA-B*57:01; [13]): ≥ 20 µM
Kd (HLA-B*15:01 [4]; [13]): ≥ 20 µM
Kd (HLA-A*02:01; [13]): ≥ 20 µM
Kd (HLA-B*15:17; [13]): ≥ 20 µM
Kd (HLA-A*02:03; [13]): ≥ 20 µM
Kd (HLA-B*27:03 [3]; [13]): ≥ 20 µM
Kd (HLA-B*18:01; [13]): ≥ 20 µM
